Like-named read-outs stand apart in the source and are kept apart here.
B1: gp100 570 (peptide)
peptide: SLADTNSLAV
modifications: not checked
B2: gp100 178 (peptide)
peptide: MLGTHTMEV
modifications: not checked
B3: mhp 572 (peptide)
peptide: RLFFYRKSV
modifications: not checked
B4: HER-2/neu 402 (peptide)
peptide: TLEEITGYL
modifications: not checked
B5: HER-2/neu 851 (peptide)
peptide: VLVKSPNHV
modifications: not checked
B6: HER-2/neu 391Y1 (peptide)
peptide: YLQPEQLQV
modifications: not checked
B7: P1Y variant of Tyrosinase 224 (peptide)
peptide: YLTGDENFTI
modifications: not checked
B8: Tyrosinase 224 (peptide)
peptide: KLTGDENFTI
modifications: not checked
B9: mp 797 (peptide)
peptide: SLFDFFHFL
modifications: not checked
B10: gp100 457Y1 (peptide)
peptide: YLDGTATLRL
modifications: not checked
B11: HBVpol 594 (peptide)
peptide: PLEEELPRL
modifications: not checked
B12: HER-2/neu 466 (peptide)
peptide: ALIHHNTHL
modifications: not checked
B13: mp 534 (peptide)
peptide: FLFWLMDTYV
modifications: not checked
B14: P1Y variant of Tyrosinase 207 (peptide)
peptide: YLPWHRLFLL
modifications: not checked
B15: HER-2/neu 402Y1 (peptide)
peptide: YLEEITGYL
modifications: not checked
B16: mart-1 32 (peptide)
peptide: ILTVILGVL
modifications: not checked
B17: P1Y variant of HER-2/neu 773 (peptide)
peptide: YMAGVGSPYV
modifications: not checked
B18: HER-2/neu 369Y1 (peptide)
peptide: YIFGSLAFL
modifications: not checked
B19: mp 530 (peptide)
peptide: ILATFLAWL
modifications: not checked
B20: gp100 476 (peptide)
peptide: VLYRYGSFSV
modifications: not checked
B21: HBVpol 765 (peptide)
peptide: LLGCAANWIL
modifications: not checked
B22: P1Y variant of HER-2/neu 851 (peptide)
peptide: YLVKSPNHV
modifications: not checked
B23: K9L (peptide)
peptide: KLTPLCVSL
modifications: not checked
B24: HER-2/neu 799 (peptide)
peptide: QLMPYGCLL
modifications: not checked
B25: mhp 572Y1 (peptide)
peptide: YLFFYRKSV
modifications: not checked
B26: Tyrosinase 207 (peptide)
peptide: FLPWHRLFLL
modifications: not checked
B27: P1Y variant of HER-2/neu 971 (peptide)
peptide: YLVSEFSRM
modifications: not checked
B28: P1Y variant of HER-2/neu 799 (peptide)
peptide: YLMPYGCLL
modifications: not checked
B29: P1Y variant of HER-2/neu 48 (peptide)
peptide: YLYQGCQVV
modifications: not checked
B30: P1Y variant of Mart-1 32 (peptide)
peptide: YLTVILGVL
modifications: not checked
B31: mp 876 (peptide)
peptide: FLSTLVHGV
modifications: not checked
B32: mp 545 (peptide)
peptide: QLLRSFFHFL
modifications: not checked
B33: mhp 988 (peptide)
peptide: DLQVNSLQTV
modifications: not checked
B34: HER-2/neu 971 (peptide)
peptide: ELVSEFSRM
modifications: not checked
B35: gp100 457 (peptide)
peptide: LLDGTATLRL
modifications: not checked
B36: P1Y variant of Tyrosinase 1 (peptide)
peptide: YLLAVLYCL
modifications: not checked
B37: HER-2/neu 661 (peptide)
peptide: ILLVVVLGV
modifications: not checked
B38: mhp 988Y1 (peptide)
peptide: YLQVNSLQTV
modifications: not checked
B39: HER-2/neu 661Y1 (peptide)
peptide: YLLVVVLGV
modifications: not checked
B40: pol79 (peptide)
peptide: LLDTGADDTV
modifications: not checked
B41: HER-2/neu 5 (peptide)
peptide: ALCRWGLLL
modifications: not checked
B42: HER-2/neu 650 (peptide)
peptide: PLTSIISAV
modifications: not checked
B43: mhp 540 (peptide)
peptide: ILAKFLHWL
modifications: not checked
B44: HER-2/neu 773 (peptide)
peptide: VMAGVGSPYV
modifications: not checked
B45: HER-2/neu 5Y1 (peptide)
peptide: YLCRWGLLL
modifications: not checked
B46: HER-2/neu 48 (peptide)
peptide: HLYQGCQVV
modifications: not checked
B47: gp100 177Y1 (peptide)
peptide: YMLGTHTMEV
modifications: not checked
B48: gp100 177 (peptide)
peptide: AMLGTHTMEV
modifications: not checked
B49: Tyrosinase 1 (peptide)
peptide: MLLAVLYCL
modifications: not checked
B50: gp100 570Y1 (peptide)
peptide: YLADTNSLAV
modifications: not checked
B51: P1Y variant of gp100 178 (peptide)
peptide: YLGTHTMEV
modifications: not checked
B52: HER-2/neu 391 (peptide)
peptide: PLQPEQLQV
modifications: not checked
B53: HER-2/neu 466Y1 (peptide)
peptide: YLIHHNTHL
modifications: not checked
B54: HER-2/neu 1023 (peptide)
peptide: YLVPQQGFFC
modifications: not checked
B55: gp100 476Y1 (peptide)
peptide: YLYRYGSFSV
modifications: not checked

Experiments:
[1] = target: HLA A2.1 molecule (human); assay: T2 cells, flow cytometry (BB7.2); reference HIVpol 589
[2] = target: HLA A2.1 molecule (human); assay: T2 cells, flow cytometry (BB7.2); complex dissociation
[3] = target: HLA A2.1 molecule (human); assay: T2 cells, flow cytometry; P1Y variant against its natural peptide
[4] = target: HLA A2.1 molecule (human); assay: T2 cells, flow cytometry (BB7.2); reference I9V
[5] = remark: other sources report otherwise

Binder | RA (relative affinity) [1] | DC50 [2] [h] | DC50 Y1-DC50 WT [3] [h] | RA WT/RA Y1 [3] | other results
B1 | 1 | – | – | – | –
B2 | 0.3 | – | – | – | –
B3 | 25.3 | < 2 | – | – | –
B4 | 19 | < 2 | – | – | –
B5 | 24 | 4 | – | – | –
B6 | 1.3 | 8 | > 6 | 55.5 | –
B7 | – | – | > 2 | > 5.1 | –
B8 | > 50 | < 2 | – | – | –
B9 | 1.5 | > 6 | – | – | –
B10 | – | – | > 2 | 2.3 | –
B11 | – | – | – | – | DC50 [2, 5]: < 2 h; RA (relative affinity) [1, 5]: 4.2
B12 | – | 2 | – | – | –
B13 | 0.2 | > 6 | – | – | –
B14 | – | – | > 4 | > 6.4 | –
B15 | 3.7 | 4 | > 2 | 5.2 | –
B16 | 21.1 | 4 | – | – | –
B17 | – | – | 2 | 2 | –
B18 | – | – | > 2 | 3.9 | –
B19 | 0.8 | > 6 | – | – | –
B20 | 10 | 6 | – | – | –
B21 | 2 | 4 | – | – | –
B22 | – | – | 2 | 3 | –
B23 | – | > 6 | – | – | RA (relative affinity) [4]: 1.35
B24 | 1 | – | – | – | –
B25 | 2.2 | 5 | – | – | –
B26 | > 50 | 2 | – | – | –
B27 | – | – | 2 | 11.6 | –
B28 | – | – | > 2 | 3.9 | –

Binder | RA (relative affinity) [1] | DC50 [2] [h] | DC50 Y1-DC50 WT [3] [h] | RA WT/RA Y1 [3] | other results
B29 | – | – | 0 | 3 | –
B30 | – | – | 2 | 16.2 | –
B31 | 1.2 | > 6 | – | – | –
B32 | 1.8 | > 6 | – | – | –
B33 | 28.6 | < 2 | – | – | –
B34 | > 70 | 2 | – | – | –
B35 | 1.6 | – | – | – | –
B36 | – | – | > 2 | > 3.7 | –
B37 | > 60 | – | – | – | –
B38 | 2.1 | > 6 | – | – | –
B39 | – | – | 2 | > 1.5 | –
B40 | – | < 2 | – | – | RA (relative affinity) [4]: 10
B41 | – | > 8 | – | – | –
B42 | 1.4 | < 2 | – | – | –
B43 | 0.3 | > 6 | – | – | –
B44 | 1.7 | 6 | – | – | –
B45 | – | – | 0 | 1.1 | –
B46 | 1.7 | > 8 | – | – | –
B47 | – | – | 2 | 0.6 | –
B48 | 0.5 | > 6 | – | – | –
B49 | > 60 | – | – | – | –
B50 | – | – | > 2 | 3.4 | –
B51 | – | – | 2 | 0.8 | –
B52 | > 70 | 2 | – | – | –
B53 | 1.4 | 6 | > 4 | 3.3 | –
B54 | 19.6 | 4 | – | – | –
B55 | – | – | 2 | 4.2 | –

From patent publication US20040072240A1
